Assays:
[1] = biological target: T1, SARS-CoV-2 omicron variant B.1.1.529 Spike ectodomain (tri-S, HexaPro) (SARS-CoV-2), P0DTC2; test: tri-S/ACE2 blocking ELISA [B]; conditions: remark: other sources report otherwise
[2] = biological target: T2, SARS-CoV-2 kappa variant B.1.617.1/3 RBD domain (SARS-CoV-2); test: RBD-ACE2 competition ELISA; design: unit not given beside the values; conditions: remark: other sources report otherwise
[3] = biological target: T3, SARS-CoV-2 delta variant B.1.617.2/3 RBD domain (SARS-CoV-2); test: RBD-ACE2 competition ELISA; design: unit not given beside the values; conditions: remark: other sources report otherwise
[4] = biological target: SARS-CoV-2 delta plus variant RBD (SARS-CoV-2); test: RBD-ACE2 competition ELISA; design: unit not given beside the values; conditions: remark: other sources report otherwise
[5] = biological target: T4, SARS-CoV-2 omicron variant B.1.1.529 RBD domain (SARS-CoV-2); test: ELISA; design: unit not given beside the values; conditions: remark: other sources report otherwise
[6] = biological target: T1, SARS-CoV-2 omicron variant B.1.1.529 …; test: ELISA; design: unit not given beside the values; conditions: remark: other sources report otherwise
[7] = biological target: T2, SARS-CoV-2 kappa variant B.1.617.1/3 …; test: ELISA; design: unit not given beside the values; conditions: remark: other sources report otherwise
[8] = biological target: T3, SARS-CoV-2 delta variant B.1.617.2/3 …; test: ELISA; design: unit not given beside the values; conditions: remark: other sources report otherwise
[9] = biological target: SARS-CoV-2 delta plus variant RBD (SARS-CoV-2); test: ELISA; design: unit not given beside the values; conditions: remark: other sources report otherwise
[10] = biological target: T3, SARS-CoV-2 delta variant B.1.617.2/3 …; test: RBD-ACE2 competition ELISA [letter not given]; conditions: remark: other sources report otherwise
[11] = biological target: T4, SARS-CoV-2 omicron variant B.1.1.529 …; test: ELISA; unit from paragraph 452, none printed in the heatmap; conditions: remark: other sources report otherwise
[12] = biological target: T1, SARS-CoV-2 omicron variant B.1.1.529 …; test: as above; conditions: remark: other sources report otherwise
[13] = biological target: T2, SARS-CoV-2 kappa variant B.1.617.1/3 …; test: ELISA; conditions: remark: other sources report otherwise
[14] = biological target: T3, SARS-CoV-2 delta variant B.1.617.2/3 …; test: ELISA; conditions: remark: other sources report otherwise
[15] = biological target: SARS-CoV-2 delta plus variant RBD (SARS-CoV-2); test: ELISA; conditions: remark: other sources report otherwise
[16] = biological target: T1, SARS-CoV-2 omicron variant B.1.1.529 …; conditions: remark: other sources report otherwise
α (SARS-CoV-2) = test: flow cytometry (Mock 2.5)
γ (SARS-CoV-2) = test: flow cytometry (Mock 2.5)
[17] = biological target: SARS-CoV-2 δ variant spike protein, cell-expressed (SARS-CoV-2); test: flow cytometry (Mock 2.5)
ε (SARS-CoV-2) = test: flow cytometry (Mock 2.5)
β (SARS-CoV-2) = test: flow cytometry (Mock 2.5)
κ (SARS-CoV-2) = test: flow cytometry (Mock 2.5)
ι (SARS-CoV-2) = test: flow cytometry (Mock 2.5)

B1: Cv2.5213 (recombinant human IgG1) (antibody)
heavy: EVQLVESGGGLIQPGGSLRLSCAASGFTVSSNYMSWVRQAPGKGLEWVSLIYSGGSTYYADSVKGRFTISRDNSKNTLYLQMNSLRAEDTAVYYCARDLNYYGMDVWGQGATVTVSSASTKGPSVFPLAPSSKSTSGGTAALGCLVKDYFPEPVTVSWNSGALTSGVHTFPAVLQSSGLYSLSSVVTVPSSSLGTQTYICNVNHKPSNTKVDKKVEPKSCDKTHTCPPCPAPELLGGPSVFLFPPKPKDTLMISRTPEVTCVVVDVSHEDPEVKFNWYVDGVEVHNAKTKPREEQYNSTYRVVSVLTVLHQDWLNGKEYKCKVSNKALPAPIEKTISKAKQPREPQVYTLPPSRDELTKNQVSLTCLVKGFYPSDIAVEWESNGQPENNYKTTPPVLDSDGSFFLYSKLTVDKSRWQQGNVFSCSVMHEALHNHYTQKSLSLSPGK
light: not shown
B1 was tested, and the AUC of blocking [1] was 10, the AUC (RBD block.) [2] was 150 and the AUC (RBD block.) [3] was 91. For the same binder, the AUC (RBD block.) [4] was 33, the AUC [5] was 1 and the AUC [6] was 2. The AUC (RBD bind.) [7] was 13, the AUC (RBD bind.) [8] was 13 and the AUC (RBD bind.) [9] was 12. For the same binder, the IC50 (read off the curve) [10] was 1 µg/mL.

B2: Adintrevimab (antibody, V domains shown)
VH: EVQLVESGGGLVKPGGSLRLSCAASGFTFSSYYMNWVRQAPGKGLEWVSSISEDGYSTYYPDSLKGRFTISRDSAKNSLYLQMNSLRADDTAVYYCARDFSGHTAWAGTGFEYWGQGTLVTVSS
VL: QSVLTQPPSVSGAPGQRITISCTGSSSNIGAGYDVHWYQQLPGTAPKLLIYGSSSRNSGVPDRFSGSKSGTSASLAITGLQAEDEADYYCQSYDSSLSVLYTFGTGTKVTVL
B2 was tested, and the EC50 [11] was 0.056 µg/mL, the EC50 [12] was 9 ng/mL and the OD405nm [13] was 3.6. It also gave an OD405nm [14] of 3.4, an OD405nm [15] of 3.4 and an IC50 [16] of over 2 µg/mL.

B3: Imdevimab (antibody, V domains shown)
VH: QVQLVESGGGVVQPGRSLRLSCAASGFTFSNYAMYWVRQAPGKGLEWVAVISYDGSNKYYADSVKGRFTISRDNSKNTLYLQMNSLRTEDTAVYYCASGSDYGDYLLVYWGQGTLVTVSS
VL: QSALTQPASVSGSPGQSITISCTGTSSDVGGYNYVSWYQQHPGKAPKLMIYDVSKRPSGVSNRFSGSKSGNTASLTISGLQSEDEADYYCNSLTSISTWVFGGGTKLTVL
For B3, the log10 ΔgMFI (α (SARS-CoV-2)) was 4.4, the log10 ΔgMFI (γ (SARS-CoV-2)) was 4.6 and the log10 ΔgMFI [17] was 4.5. It also gave a log10 ΔgMFI (ε (SARS-CoV-2)) of 4.5, a log10 ΔgMFI (β (SARS-CoV-2)) of 3.9 and a log10 ΔgMFI (κ (SARS-CoV-2)) of 4.7. The log10 ΔgMFI (ι (SARS-CoV-2)) was 4.9.

— US20240336672A1
